Source: patent publication US20210205413A1 (Nektar Therapeutics, priority 2018, published 2021)
Values joined by “and” are separate entries in the source; they are usually repeats but may differ in a detail not shown here. Identical values can stand only once. “Also recorded” adds a separate entry of the source.

Key:
CD4+ and CD8+ T cells = assay: Phase I single ascending dose study in healthy volunteers: Tcon cells; type: in vivo, human
Description: (§1) A double-blind, randomized, placebo-controlled study is conducted to evaluate the safety, tolerability, pharmacokinetics, and pharmacodynamics of single ascending low sub-cutaneous doses of an RUR20kD-IL-2 composition (RUR20kD-IL-2) in healthy volunteers. […] Twelve subjects are randomized to each dose cohort, nine of whom received a single subcutaneous dose of RUR20kD-IL-2 while three received placebo. […] The drug product is supplied in single-use glass vials and stored at 2-8° C. […] Placebo is a commercially available 0.9% sodium chloride solution. A starting dose of 0.3 μg/kg is chosen using the minimally anticipated biological effect level (MABEL) approach and is supported by the no observed adverse effect level (NOAEL) in the most sensitive species from nonclinical toxicology studies.
(§2) The primary objective of the study is to evaluate the safety and tolerability of RUR20kD-IL-2 administered as a single subcutaneous dose. […] In a first phase of the study, immune markers are tested pre-dose up to 20 hours post-dose. Specifically, Tregs, CD4^+-T cells, CD8^+-T cells, natural killer (NK) cells, cytokines, soluble CD25, and RNA are tested in RUR20kD-IL-2- and placebo-receiving cohorts. In subsequent phases, the same immune markers are also tested at 4-, 5-, 6-, 7-, 8-, 10-, 12-, 15-, 18-, 20-, 25-, 30-, 40, and 50-days post-dose.

[1] = Phase I ascending multiple-dose study in patients with SLE: pharmacokinetics; type: in vivo, human; details: Multi-Dose Study
Description: The effects on SLE disease activity are also evaluated. Twelve SLE patients with minimal to moderate disease activity are randomized to each of four dose cohorts, nine of whom received multiple 1.0 mg/mL aqueous solution sub-cutaneous doses of RUR-IL-2-20 kD, while three received placebo. […] In Cohort 1, a starting dose of 3.0 μg/kg is administered three times at two-week intervals (Days 1, 15, and 29). This starting dose is based on the favorable safety and PD profile of single sub-cutaneous doses of RUR20kD-IL-2 previously determined in the study described above. The subsequent dose levels in Cohorts 2, 3, and 4, respectively, were up to two-fold that of the previous dose cohort. Patients in Cohorts 1-3 received three doses of study drug at two-week intervals over a total of four weeks. Doses to be evaluated over the course of the study range from 3.0 μg/kg to 24 μg/kg. […] After receiving the final dose of RUR20kD-IL-2 or placebo, patients are followed for an additional fifty days to evaluate safety, PK, PD, and preliminary efficacy. Eight of twelve subjects in each cohort are evaluated two weeks after the third dose of the final patient by the Safety Review Committee for possible safety issues. In addition, all patients in Cohort 4 are evaluated by the Safety Review Committee twice: (1) two weeks after the first eight subjects receive their third dose and (2) two weeks after all subjects receive all doses of study drug. Immunologic changes, including Tregs, CD4^+-T cells, CD8^+-T cells, and NK cell responses, cytokine levels, and available PK data, in addition to safety findings, are used to determine dose levels. The primary objective of the study is to evaluate the safety and tolerability of RUR20kD-IL-2 administered as multiple ascending subcutaneous doses to patients with SLE. […] Results depicting preliminary PK data from the ascending multi-dose study are compared with data from the single subcutaneous study in the below Table 15: […]

[2] = test system: Balb/c mice (KLH DTH model); assay: Mouse KLH delayed-type hypersensitivity (DTH) efficacy model, ear swelling; type: in vivo
Description: Mice are sensitized subcutaneously in their dorsal area with a 100 μl subcutaneous injection containing 100 μg keyhole limpit hemocyanin (KLH) in an emulsion containing Complete Freund's Adjuvant (CFA) and Incomplete Freund's Adjuvant, at a ratio of 1:1:1 respectively. Five days later, baseline ear thickness is measured prior to challenge with 10 μg of KLH intradermally in the left ear, with the right ear remaining untreated. Ear thickness measurements are measured with calipers at 24, 48, 72 and 96 hours post KLH challenge in all groups. […] A positive control consisting of cyclosporin (10 mg/kg, single dose) was administered on day 0.

CD56+ NK cells = assay: Phase I single ascending dose study in healthy volunteers: NK cells; type: in vivo, human
Description: as §1, §2

[3] = Single dose toxicokinetics in rats (SC, LS-2016-004); type: in vivo, Rat; details: mean of three rats per time point
[4] = SC q3d, AUC0-96h of change in ear thickness

## (1,3-bis(methoxypoly(ethylene glycol)10kDcarbamoyl)-2-propanoxy)-4-butanamide)interleukin-2) [RUR20kD-IL-2]
CD4+ and CD8+ T cells; single SC 13.5 μg/kg
  absolute number of CD8+ T cells and percentage of Ki67+ CD8+ T cells: small increases
CD4+ and CD8+ T cells; single SC dose, any dose
  percentage or numbers of T cell populations (CD4+, CD8+): no changes in percentage or numbers of T cell populations (CD4+, CD8+); also recorded: no changes in percentages or numbers of conventional CD4+ or CD8+ T cells
[1]; 3.0 μg/kg, Median (n = 9)
  AUC0-14 d: 185 ng·days/mL
  Cmax: 18 ng/mL
  tmax: 140 h
[1]; 3.0 μg/kg, max
  AUC0-14 d: 291 ng·days/mL
  Cmax: 26 ng/mL
  tmax: 336 h
[1]; 3.0 μg/kg, min
  AUC0-14 d: 113 ng·days/mL
  Cmax: 15 ng/mL
  tmax: 48 h
[1]; 6.0 μg/kg, Median (n = 7)
  Cmax: 14 ng/mL
  tmax: 140 h
[1]; 6.0 μg/kg, max
  AUC0-14 d: 206 ng·days/mL
  Cmax: 22 ng/mL
  tmax: 336 h
[1]; 6.0 μg/kg, min
  AUC0-14 d: 43 ng·days/mL
  Cmax: 5 ng/mL
  tmax: 96 h
[2]; SC 0.003-0.3 mg/kg every three days
  ear swelling relative to vehicle control: significant dose-dependent decreases in ear swelling
[2]; [4]
  dose achieving maximal effect: 0.3 mg/kg
  minimally effective dose: 0.01 mg/kg
CD56+ NK cells; highest dose tested (28.0 μg/kg)
  increase in NK cells: 2 fold and 3.5 fold
CD56+ NK cells; single SC 3.0 μg/kg
  percentage of CD56+ NK cells expressing Ki67: ~10%
CD56+ NK cells; single SC 6.0 μg/kg
  percentage of CD56+ NK cells expressing Ki67: 20-30%
CD56+ NK cells; single SC 9.0 μg/kg
  percentage of CD56+ NK cells expressing Ki67: 30-40%
CD56+ NK cells; single SC 13.5 μg/kg
  percentage of CD56+ NK cells expressing Ki67: 30-40%
CD56+ NK cells; single SC 13.5 and 20.0 μg/kg
  percentage and absolute numbers of NK cells: small increase in the percentage and absolute numbers of NK cells
[3]; single SC 0.01 mg/kg
  AUCinf: 5230 ng·h/mL
  AUClast: 5210 ng·h/mL
  Cmax: 60 ng/mL
  Half-life: 33.8 h
  MRTinf: 63.1 h
  tmax: 24 h
[3]; single SC 0.1 mg/kg
  AUCinf: 73000 ng·h/mL
  AUClast: 71100 ng·h/mL
  Cmax: 640 ng/mL
  Half-life: 58.6 h
  MRTinf: 97.9 h
  tmax: 24 h
[3]; single SC 1.5 mg/kg
  AUCinf: 678000 ng·h/mL
  AUClast: 672000 ng·h/mL
  Cmax: 9300 ng/mL
  Half-life: 47.3 h
  MRTinf: 73.7 h
  tmax: 48 h
